According to publication PMC7895908:

Experiments:
Assay in all cases: ITC
[1] = biological target: YFP (UniProt P42212)
[2] = biological target: mEGFP (monomeric enhanced GFP) (UniProt P42212)
[3] = biological target: mVenus (UniProt P42212)
[4] = biological target: sfGFP (super folder GFP) (UniProt P42212)

GGGAGCUUCUGGACUGCGAUGGGAGCACGAAACGUCGUGGCGCAAUUGGGUGGGGAAAGUCCUUAAAAGAGGGCCACCACAGAAGCUCCC [free RNA aptamer against GFP family]
Kd [1]: 4 nM
Kd [2]: 5 nM
Kd [3]: 5 nM
Kd [4]: 13 nM
